Experimental data reported in article PMC2749821 (2009).

T1: ACVR2B (Mus musculus (Mouse), UniProt P27040)
T1 chain: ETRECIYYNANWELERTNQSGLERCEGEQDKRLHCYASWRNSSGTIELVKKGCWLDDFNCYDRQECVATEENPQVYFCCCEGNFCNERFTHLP

T2: BMPR1B (Mus musculus (Mouse), UniProt P36898)
T2 chain: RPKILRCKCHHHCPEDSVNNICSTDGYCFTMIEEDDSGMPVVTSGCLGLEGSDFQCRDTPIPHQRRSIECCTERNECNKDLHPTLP

B1: BMP7 (protein)
chain 1: DQRQACKKHELYVSFRDLGWQDWIIAPEGYAAYYCEGECAFPLNSYMNATNHAIVQTLVHFINPETVPKPCCAPTQLNAISVLYFDDSSNVILKKYRNMVVRACGCH
chain 2: B1 chain 1
B2: ActivinA (protein)
chain 1: GLECDGKVNICCKKQFFVSFKDIGWNDWIIAPSGYHANYCEGECPSHIAGTSGSSLSFHSTVINHYRMRGHSPFANLKSCCVPTKLRPMSMLYYDDGQNIIKKDIQNMIVEECGCS
chain 2: B2 chain 1

Experiments:
ACVR2B = biological target: T1, ACVR2B; experiment: SPR 1:1 (ligand immobilised, monomeric ECD analyte)
BMPR1B = biological target: T2, BMPR1B; experiment: as above

Binder | Kd (ACVR2B) [nM] | Kd (BMPR1B) [nM]
B1 | 2500 | 750
B2 | 88 | > 64000
